B1: Amuc_1100 (31-317, Y289A): Amuc_1100 (31-317) mutant protein with single point mutation Y289A, numbering relative to SEQ ID NO: 1 (protein)
chain: MIVNSKRSELDKKISIAAKEIKSANAAEITPSRSSNEELEKELNRYAKAVGSLETAYKPFLASSALVPTTPTAFQNELKTFRDSLISSCKKKNILITDTSSWLGFQVYSTQAPSVQAASTLGFELKAINSLVNKLAECGLSKFIKVYRPQLPIETPANNPEESDEADQAPWTPMPLEIAFQGDRESVLKAMNAITGMQDYLFTVNSIRIRNERMMPPPIANPAAAKPAAAQPATGAASLTPADEAAAPAAPAIQQVIKPAMGKEQVFVQVSLNLVHFNQPKAQEPSED
B2: Amuc_1100 (31-317): Naturally-occurring fragment (residues 31-317) of Akkermansia muciniphila outer-membrane protein Amuc_1100; recombinant protein (protein)
chain: MIVNSKRSELDKKISIAAKEIKSANAAEITPSRSSNEELEKELNRYAKAVGSLETAYKPFLASSALVPTTPTAFQNELKTFRDSLISSCKKKNILITDTSSWLGFQVYSTQAPSVQAASTLGFELKAINSLVNKLAECGLSKFIKVYRPQLPIETPANNPEESDEADQAPWTPMPLEIAFQGDRESVLKAMNAITGMQDYLFTVNSIRIRNERMMPPPIANPAAAKPAAAQPATGAASLTPADEAAAPAAPAIQQVIKPYMGKEQVFVQVSLNLVHFNQPKAQEPSED
B3: secreted Amuc_1100 (31-317) from genetically engineered EcN: Amuc_1100 protein isolated from culture media of EcN strain CBT1108 by his-tag antibody resin, endotoxin removed (protein)
chain: MIVNSKRSELDKKISIAAKEIKSANAAEITPSRSSNEELEKELNRYAKAVGSLETAYKPFLASSALVPTTPTAFQNELKTFRDSLISSCKKKNILITDTSSWLGFQVYSTQAPSVQAASTLGFELKAINSLVNKLAECGLSKFIKVYRPQLPIETPANNPEESDEADQAPWTPMPLEIAFQGDRESVLKAMNAITGMQDYLFTVNSIRIRNERMMPPPIANPAAAKPAAAQPATGAASLTPADEAAAPAAPAIQQVIKPYMGKEQVFVQVSLNLVHFNQPKAQEPSED

Legend:
TLR2 [1] = target: T1, TLR2 (Homo sapiens, UniProt O60603); experiment: TLR2 reporter gene assay in HEK293 cells (QUANTI-Blue); type: cell-based; parameters: host or cells: HEK293; conditions: HEK293 cells expressing human TLR2 and reporter gene; FIG. 3B
Method: HEK293 cells expressing human TLR2 receptor and its reporter gene (InvivoGen, hkb-htlr2) were seeded in a 96-well plate and treated by […] (31-317) or mutant recombinant Amuc_1100 (31-317, Y289A). The reporter gene activity was detected by QUANTI-Blue™ (InvivoGen, rep-qbs2), and the cell viability was detected by CellTiterGlo (Promega, G7573) by following the reagent kits' instruction. The results were shown in FIG. 3B (Pam3CSK4 is the positive control for TLR2 ligand). […] All agents show no significant impact on cell viability.

[2] = test system: proteases trypsin and α-chymotrypsin; experiment: Protease digestion stability (trypsin and α-chymotrypsin, SDS-PAGE, Coomassie blue); type: in vitro ADME; conditions: trypsin 0.01 mg/ml and α-chymotrypsin 0.01 mg/ml, 37° C., 30 min; versus wild type; FIG. 3A
Method: Recombinant Amuc_1100 wild type (WT) and mutant protein are digested by proteases trypsin (0.01 mg/ml) and α-chymotrypsin (0.01 mg/ml) at […] for 30 min. The samples are subjected to SDS-PAGE gel electrophoresis and Coomassie blue staining. Lane A: Amuc_1100 (31-317, Y289A) without proteases; Lane B: Amuc_1100 (31-317, Y289A) with proteases; Lane C: Amuc_1100 (31-317, WT) without proteases; Lane D: Amuc_1100 (31-317, WT) with proteases; MW: molecular weight marker (KD).)
Some mutants of the […] (31-317) may reduce protein degradation by proteases. The amino acid sequence (SEQ ID NO: 146) and nucleotide sequence (SEQ ID NO: 147) of Amuc_1100 (31-317, Y289A) with 6×His tag at the C-terminus expressed by the plasmid described above (FIG. 1) were shown in FIG. 2. The recombinant Amuc_1100 (31-317) protein and mutant protein (31-317, Y289A) were digested by proteases trypsin (0.01 mg/ml) and α-chymotrypsin (0.01 mg/ml) at 37° C. for 30 min. The samples were then subjected to SDS-PAGE gel electrophoresis and Coomassie blue staining.

[3] = test system: spontaneous breast cancer in MMTV-PyVT transgenic C57BL/6 female mice; experiment: Spontaneous breast cancer model, tumor growth rate and H&E staining; type: in vivo; conditions: Amuc_1100 proteins 3 μg/kg oral gavage daily 4 weeks; anti-PD-1 10 mg/kg i.v. every three days 3 weeks; FIG. 4, FIG. 5
Method: The MMTV-PyVT transgenic C57BL/6 female mice were used to develop spontaneous breast cancer. Mice at age of 9.5 weeks were randomly divided into 6 groups with 4-5 mice in each group and were subjected to agent treatment. The mice in the control group were treated with PBS by oral gavage daily for 4 weeks, plus PBS i.v. injection daily after one week of oral gavage for 3 weeks. […] All the spontaneously developed tumors were monitored. Tumor sizes were measured twice every week. The health status of mice was closely monitored. Tumor growth rate of each tumor in mouse following agent treatment was analyzed. […]

[4] = Body weight gain in mouse model; type: in vivo, mice; conditions: 3 μg/kg oral gavage daily for 4 weeks; compared to PBS control group
Method: Mice at age of 9.5 weeks were randomly divided into 3 groups with 4-5 mice in each group and were subjected to agent treatment. The mice in the control group and test groups were treated with PBS, Amuc_1100 (31-317), or Amuc_1100 (31-317, Y289A) (3 μg/kg) by oral gavage daily for 4 weeks, respectively. The body weight of each mouse in each group was measured twice every week.

TLR2 [5] = target: T1, TLR2; experiment: TLR2 reporter assay of Amuc_1100 secreted from engineered EcN; type: cell-based; parameters: expressed in transfected cells; host or cells: HEK293; conditions: HEK293/TLR2 reporter cells, 24 hours, colorimetric; protein isolated from CBT1108 culture media; FIG. 17
Method: The genetically engineered bacteria EcN strain CBT1108 obtained in Example 6 were cultured, and the culture media was collected at late exponential growth stage. The […] (31-317) protein was isolated from the culture media by his-tag antibody-containing resin column. The endotoxin was removed from the isolated Amuc_1100 (31-317) protein.
The Amuc_1100 (31-317) activity was tested by TLR2 reporter assay. Specifically, HEK293/TLR2 reporter cells were stimulated in 96-well plate with certain amount of protein for 24 hours, the reporter enzyme's substrate was added into the cell media and the activity was measured by colorimetric method.

T1 sequence (O60603 21-784): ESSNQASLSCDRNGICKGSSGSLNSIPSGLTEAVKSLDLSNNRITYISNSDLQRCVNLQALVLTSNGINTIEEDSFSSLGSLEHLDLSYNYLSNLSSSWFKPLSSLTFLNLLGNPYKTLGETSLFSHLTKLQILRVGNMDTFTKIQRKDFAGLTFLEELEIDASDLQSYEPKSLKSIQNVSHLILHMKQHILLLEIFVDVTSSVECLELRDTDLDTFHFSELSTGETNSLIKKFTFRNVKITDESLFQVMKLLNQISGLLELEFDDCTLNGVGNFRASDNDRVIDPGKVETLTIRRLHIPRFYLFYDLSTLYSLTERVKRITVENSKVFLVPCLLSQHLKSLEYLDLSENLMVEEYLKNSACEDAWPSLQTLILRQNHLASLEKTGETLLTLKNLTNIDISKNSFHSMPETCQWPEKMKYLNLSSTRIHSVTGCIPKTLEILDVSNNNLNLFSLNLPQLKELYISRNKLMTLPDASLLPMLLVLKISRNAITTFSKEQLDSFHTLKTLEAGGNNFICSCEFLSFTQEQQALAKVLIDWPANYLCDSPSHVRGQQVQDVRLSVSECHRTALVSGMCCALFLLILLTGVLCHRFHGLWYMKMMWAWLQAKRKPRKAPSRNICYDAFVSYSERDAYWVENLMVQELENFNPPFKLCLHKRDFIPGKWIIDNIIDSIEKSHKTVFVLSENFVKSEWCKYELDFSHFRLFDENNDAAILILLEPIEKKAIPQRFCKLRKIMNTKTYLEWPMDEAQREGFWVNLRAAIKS

| Molecule | EC50 for TLR2 activation (TLR2 [1]) [µg/mL] | resistance to enzyme digestion [2] | tumor growth inhibition [3] | changes in body weights [4] | TLR2 signal stimulation (TLR2 [5]) |
| --- | --- | --- | --- | --- | --- |
| B1 | 0.951 | more resistant to enzyme digestion compared to wild type Amuc_1100 protein | partially inhibited tumor growth | no significant changes in body weights |  |
| B2 | 0.535 |  | partially inhibited tumor growth | no significant changes in body weights |  |
| B3 |  |  |  |  | stimulated TLR2 signal |
